Molecular target: CH848 Env trimer expressed on the cell surface of CHO cells (HIV-1 (clade C, individual CH848, …))
Assay: flow cytometry on CHO cells expressing CH848 Env

B1: DH270.IA4 (antibody, V domains shown)
VH: QVQLVQSGAEVKKPGASVKVSCKASGYTFTDYYIHWVRQAPGQGLEWMGWINPNTGRTNYAQKFQGRVTMTRDTSISTAYMELSRLRSDDTAVYYCARGGWIGLYYDSSGYPNFDYWGQGTLVTVSS
VL: QSALTQPASVSGSPGQSITISCTGTSYDVGSYNLVSWYQQHPGKAPKLMIYEVSKRPSGVSNRFSGSKSGNTASLTISGLQAEDEADYYCCSYAGSSTVIFGGGTKLTVL
notes: also called DH270_I4
Question: Does B1 bind?
Answer: no binding (tested: 5 ug/mL)

— patent US20200113997A1 (published 2020)
